Reference: the domain aggregation screens of Martell et al. (2025)

Experiment: soluble fraction after stress (log2 fold change); higher = more stays soluble; pooled small domains, quantitative proteomics
Conditions: stress: pH 4
In short: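 Following acid stress at pH 4, the amount of each small protein domain still soluble was measured in pooled custom libraries by high-throughput quantitative proteomics. Its fold change, on a log2 scale, is higher when more of the domain stayed soluble. This fold change is taken as a measure of aggregation propensity.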

Sequence	soluble fraction (log2)
HMISKRFQVDEENSNNRVDIFLANNLDSISRGIVQQLILDGKVLVNGETVKRNHLLKTNDEVDISFEI	0.0466
HMEDVRSLTGPEKAAIILLSLGEEHGQGVWRMFDDEEVKEVSQIMANLGTISASVVEKLLVEFVSQMST	-1.5
HMEDETAKVLRLLAENNGYLPYNDKSDPTDIYAFFGMSKKAFKMTTGNLYKQKKIQFTQTGIQLIE	-0.16
HMEDSEYDRLLAEIDEGIRKAIETLEPVELSPQNARVRRIQHQIIEKYQLHSDSVGEEPYRRVRIL	-1.03
HMARKISVEALGKYFPNSPMLAAAVAVTGVMKKDEFIHEMRASYKHKFAKKPEVIDGNMKALTMTFEA	-0.122
HMLNERQKKIIKILKDNKNWMTGKELSEFLNVSDRTIRSDIEYINRYNNALIESNVKNGYHLNFE	-0.0338
HMENSLLSESLAKIYIKTHRYERAYEILSRLSLAVPEKNAYFADQLRFLRKVMLAESFRKQHS	0.22
HMLNPMILLTKGGENIRLDKFLSSHLSDLSRTQIQKMVKEGLVLVNGEPSKVGLKLDGSETIQYTLPK	0.254
HMNSGFEVFREVVNQGSFIGAANALGISAPAVSKQIKLLENRLGLLLLYRTTRNVTLTDIGKQLFDTLDNS	-1.37
HMRIGINDRIHEIVDVLRLKKSTPFEDLFSGLVTRFDLVITFLALLEMGKLRLLRLYQTDPLAPLHVEYTG	0.0416
HMETFGEKDLDELIGRNVELITHDGKVREGLVDSVDRYNVSLVRYLDAGEVAMMVRRREVKAVRLK	-1.12
HMQEVILEKIQLTYLSADKLSKMAEQFSIPVKMYWVDENPMMLMVMGNESDIATFKKVLTQIDIPENKS	-1.04
HMTANPHKPEPLQIDTSDITPGVTVIHKAFGNGTVVSVDNNRILIDFDGIEKKFPFPGAFLYGFLQK	-1.17
HMIDFDEQGNLWVHEMGPRHGDELNLIEKARNYGYPTVSQGDHYSGVKISNHEDIPIFKSPEKAWVPAISP	-0.373
HMISESLLDEIPGLGETRRNSLLREFGSVAMIRKASAEEIASRVRGIGAEFAAAIHDFLQTH	0.0801
HMSSKTKVEDLGLSTRTLNALIGGSIKTAGGLTRKSESDLLSLDGLGEKGITEIKEALENIGLSLK	0.0218
HMERYFVLVIYDIVDNKKRLKLSKYLLGYGIRVQKSAFEMMITKEKYNKLIKELPTYIEEGEDSIRLY	-0.292
HMSVDDYLKFSGSGTYWNTQDRGKTYLVNGQQRPLRDKEYLPDVMHRHVIDFITKHRDRPFYIYYSM	-0.0438
HMKSDVVFDITDGTVKAMLKFNRSDVTILNNDGKNYYLFTANGEFTFKYQDGSGEYYEKTVYVDWLEDE	-1.56
HMNLPTSGVDALTPAERRVARMAGDGQSNREIAQTLFVTRKTVEIHLTSVYRKLGIASRAELSARL	-0.59
HMSELPLTQKVAIVMVALGEEASGEVMKHLSDYEIEEITQAIAGLKNISVELMDQILEEYEQHLIAG	-0.536
HMTVNLPPKQKAAILLMSLPPEVSAQLFKELGPDEVHAITLEISKLPPISPDVRAQVIDEFLHSS	-0.226
HMVAVSQEEATKMALERVSGASAQDIRIQLEFDDGIQKYEGDIIYNGREYEFEIDANTGTFLEWSEERA	≥ 0.43
HMADPAVLIAELFRAMPEKRFSVKNLISATGAETREQKDYVREVVHSLSREGMIEQVAEGKYRLSASE	0.241
HMRMTKQRQAVLDELTRVTDFRSAQQIFEDLHSQGHRVGLATIYRSLQGLAEDGSVDTLRSSDGESLY	-0.169
HMKDLIGEAKAKELALGHAKLSASDVTFIHVELDWENGRRVYDVEFYSGAKEYDYEIDAKTGEIVSFDY	0.00222

Sequence	soluble fraction (log2)
HMTGDIIKQERKKKNLTQIELAKKVGISRNALINYEAGTRIPPISVQLKLADVLGIDILDLK	-0.0221
HMNGTEAIRRYIDQFASKHATTPRMLKLNERKQLIQELKNNGLLEIKKAVETVAQHLGISRASAYLYVKE	≥ 0.43
HMAEPIAAGKYTVSTSGSVLNMRVSPDADSQVLEKIPNGTIVEVTKSVLGWAYVTYNSAQGWVSSAYLV	-0.463
HMENTSPMTPEQSKALMAYLTKRHGDSREAYLSELSQFFGRPLSSSRELTKADVSEFLNAIN	-0.0703
HMGGLIDQSIQEIIDKYSVPGKKIQKAQRLKIVAEMHTKGIFKMRGGVQQAAQALGVTRYTVYNDLEVMN	-0.259
HMSNVIYFNYNDYKFLFMGDAGVDKETDILEKYTLSNIDFLKVGHHGSDTSSNKGFIDSIQPKYSLIS	-1.42
HMQRRHESTPIPADFDYAAVRGLSAEVQQKLERVRPLSIGQAQRIPGMTPAAISLLLVHLERQRRSRV	0.00221
HMDLKHNQITMRELLRNKQAYLLLYKEFPMFMTPAILQNIRPLTLQQIIQMVRPYISRPKLNMLLEQLENI	0.22
HMGTYTSALDGIKGLGKKRKMLLLNTYKSIDVLKSVPLTELSQLIPREVAEALLTKLNRVDD	0.116
HMSGPVITEERNIANALISGLANMKETPTREQVERKAQQIAELFGYTGDLRNIITEAMISVDT	-0.137
HMISDEELLVSTKKEIMSLATVLTKTDKKDDAIAIMKEYDPAANPNRIKDVNKAKELLERLQKLG	-0.104
HMTIENTDTFLETLWEQVQRASVDENGIITSRVLIWDEGTKLDEILSWFDKRHSLGALYLQFG	-1.74
HMKLIIVPNLVGQSRRSVEISLQQIGLRIDTVYTEFNPDYPKGTVAWQFPKSGDHIKKGMGLQITVSQG	0.22
HMTTEIVRMKKDVKIGQEITAKDIEVVEVGAYNLPDEVIRSSEEVVGKYVSSELLKGEYVLPSKISDTP	-0.53
HMQGDHELSQRILSYLSEQGGSSPLTDKASPEEIYRIFRVSKKKYKQALGNLYKSKSIIILADKIQLL	0.195
HMGMAQELMESRLTAVFTSGKDQLAVLQRKDGSTLKLGADSKPWRIESFDGRKAVFVSADQQRVERLL	-0.599
HMTTEPYILTRMPDGSIKAEPNLNYKGPEQKPGSNIQVKGADGRIYLVPIDGQGKPGKPQLVD	0.127
HMHLKDEHGLTPKQRAFADEYVITLNATVSYKKIYSVKRDSVASTNGSRLLGNANVKAYIDKRLEE	0.172
HMLSNKIEQLRKEKGYTFAKLSELSGISTGRLSDLATGKRNNPTMDTLIKLADALDVTLDELVGR	-0.328
HMSSQLETTFATLIGKRVSIRLHDPEGGFRDILGHLESPYSLRNRHGNLIEFAHDQIFLWREVI	-1.18
HMAEKEYYYATDALNLRQGPGMEHTVKGEVVLGERVALLGLEGKWAKIQNAQGTTGYVFSAYLAPS	-0.147
HMGSLKEKIVLLEKLYQQNPSEEIKLLLINTYQLNHQYIQARKLFFTLTPEQKEKLPLASEFLIFL	-0.725
HMTDFDPDGREKLIKVQKALHFNNHQLADALRVGQATFSSYIYGRVAAGVPVRVVKAAEDLLKNSKATV	0.146
HMEQSLNTYSIRTVKESLFLAETKNLNKIEKLVEGIEGRLTLSEALVLFSDKLNAMSVLSHVNANT	-0.273
HMDLDIGSVLQASRGEKKISLRQLAERTGLTASMLSQIERNLVNPSINTLKVIAAALEIPMYKFFMG	-0.583
HMTKLSPKEKSILHIIGDNAGIKSGQIAKRLDIPSPTVKRILSDLVSQNLIEKFGTGPGTNYSI	0.22

Sequence	soluble fraction (log2)
HMEQIFTELIMDGRVLGENLHRMGVDETWLLRQLRQQGYHSAREVFLAVADANKQVAVYPVS	-0.776
HMGTGSSAERITMLNSILERQIQAMEIQGNPDAPIVNIQKIYTTLQRIVETAGLKDVDQFFMNPLQGQKEM	-0.407
HMERTQSIEAAREQLGEVTKDNVFETETLGALAILKENEPGEYAKIKADLKGKINMNDLERAVKKAAADQR	-0.0729
HMERLKRVTLSLNQSNYSVTEIARRLQAITGIKDITVVEDEQAVYLKVDPATFDLTLAQQAV	-0.653
HMEAKSSTKALLDVVLGRNGVSTANVAKSLNISVQNASTRLKKLSSEGVIMRSEVSSPTGGIEFIYS	0.22
HMTVLPTENDAKALVGLNEDEAVKIIEGNGWTYRIGSRDGEQFMLTEDYSTSRLTLGIEKSIVVTATI	-0.56
HMGNLASGAYEQIKRRILSLEYLPGSILQERGLAEELGISRTPVREAIHRLSQEGWLKINSRKNIRVR	-0.482
HMIKITLGWVISVRRHDLGYTQHKMARAVGISDLTVSRIESDDGITPDNNTLRKIAEYLKIDYNSLLTLK	-0.175
HMDTNTIIGLRIKALRTEKKYTLKYLSENSGLSIGFLSQLERGMTSVAIDSLDKISKVLDVELSSFFN	-0.65
HMDILPRMVASEMRAVGVPPERMTREEKGTVIRNLMNAGIHQMKGAVVEIARQLHLSEPTVYRYIKREKG	-0.177
HMNKPTSMYKLRLLLKHYHAGASKRWMADVLDISRSTLNVYLARIESLNLAFEEWEALSDLEVSRLLINP	-0.852
HMHGERVVTAGQTVRVVFTSNGLQVSSEGKALAAGAVGDDIQVRAASGKVIRGTVTGPGVVQV	≥ 0.43
HMNYSKQRETILKVLRSTRSHPSVNWIYENVKKEIPDVGLATVYRNLKQLEAAGEIMRIQGDFPEERWDGF	-0.587
HMNDRLFQILYLLLEKGTMTAPELSRALEVSVRTIYRDIDALSLAGVPVYATQGKNGGVSLLPNY	-0.758
HMNATPDMERYWASSAAEGRALEPLYAVSRGDGGEPLWWSPSRAQAERMAREEGGPLTVDRIDPP	-0.0463
HMDFDPDVPSREDILQAFRDSKPPLTVNALISEFGLSRDASIVGLERRMGAMQRDGQLEQTPSGWQLSV	0.144
HMGFSERLAQAMSHAGYTQGGLAKAVGMAQSSVNKLLNNANSSRKTVEIASVLGVRPEWLSTGEGDML	0.188
HMVGKGASIILDRVNLPQYLEKFNEDGFDTIESLKNLNEIDLKEMGVKKGHIRVILNYLHEEY	-0.48
HMEMVSMPGLTGSTLEFATKTLTENELKYEVVYIVDASAESGLIIRTYPTEGEMVSKKTSTIYLYIKE	-0.481
HMLLFNPGEVLKGFVLQSGTNNRVLLQIGDSRVIADTQTPLKAGEQLVLRVEETGPKTILQILG	0.0206
HMNEMEFAQRLRQFRKAKNLTQQELADRLGVSNKSVSRWESGSYPDVGTLVALARALGVTVDELLDPKA	0.149
HMGQLIGKEEAKQIALSRAGVAEGDISRYESELDTDDGKTKYEISFHVGRVEYDIEINAVTGAVEKFEMDN	0.0113
HMKVEFTPAYLKKFKANKNAWKFYEAQTNTYKKQSAWYVISAKQEETRLRRLDLLIYDSENGIHIKPLRR	0.211
HMTLSHAINRLRLNANMSQEQFAGLFHVSQQSVQKWESGDSVPELSKLIAIAKHFGISLDALILGN	0.0336
